Tests used:
HLA-B7 (human) = assay: assembly assay (HLA-B7 stabilisation)
HLA-B35 (human) = assay: assembly assay, T2-B35 cell lysate, W6/32 IP, IEF gel

Binder	C50 (HLA-B7 (human)) [µM]	C50 (HLA-B35 (human)) [µM]
QPRAPIRPI (modifications not checked) [C6]	0.1	–
RPPIFIRRL (modifications not checked) [C7]	0.5	–
YPLHEQHQM (modifications not checked) [C24, EBNA3A458-466]	–	0.8

Source: EP2857035B1
